B1: RAP d3: third domain (d3) of receptor-associated protein, amino acids 200-323 of mature RAP; row 'RAP' of Table 2 (protein, listed as Homo sapiens)
chain: LDRLRRVSHQGYSTEAEFEEPRVIDLWDLAQSANLTDKELEAFREELKHFEAKIEKHNHYQKQLEIAHEKLRHAESVGDGERVSRSREKHALLEGRTKELGYTVKKHLQDLSGRISRARHNEL
B2: MegaRAP1: RAPd3 variant; Table 2 positions 213 T, 217 K, 249 Y, 251 K, 256 A, 270 E (protein)
chain: GLDRLRRVSHQGYTTEAKFEEPRVIDLWDLAQSANLTDKELEAFREELKYFKAKIEAHNHYQKQLEIAHEELRHAESVGDGERVSRSREKHALLEGRTKELGYTVKKHLQDLSGRISRARHNEL

Columns and labels:
[1] = target: CR pairs of the second ligand-binding domain of human LRP1; conditions: all pairs except CR9-CR10; read-out: affinity of adjacent CR pairs for RAP d3; cited from earlier work
LRP1 CR3-5 = LRP1 CR3-5 (Homo sapiens, UniProt Q07954); experiment: Binding of RAP d3 / MegaRAP1 d3 variants to LRP1 CR3-5; conditions: in words
Source text: FIG. 1A-B depict binding of RAP d3, MegaRAP1 d3 (RAPv2A d3) and intermediate sequence variants to LRP2 CR89 and LRP1 CR3-5. FIG. 1A illustrates binding of RAP d3 mutants and RAPv2A d3 revertants to LRP2 CR89. FIG. 1B illustrates binding of RAP d3 mutants and RAPv2A d3 revertants to LRP1 CR3-5. Data were plotted and fitted by non-linear regression with the assumption of a single binding site (GraphPad Prism). Kd values with standard deviations were derived from the regression analysis.
Percent of maximum binding is the ratio of the OD at the highest concentration tested for each ligand and the highest OD measured for all such ligands at that concentration.

Chain of LRP1 CR3-5 (Q07954 852-973 limits assumed): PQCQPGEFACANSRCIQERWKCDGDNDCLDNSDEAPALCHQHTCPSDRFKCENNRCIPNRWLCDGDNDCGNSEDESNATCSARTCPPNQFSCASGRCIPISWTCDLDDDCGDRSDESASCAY

Molecule | Kd [1] | binding to LRP1 CR domains (LRP1 CR3-5)
B1 | 1 to 5 nM | –
B2 | – | fails to bind LRP1 CR domains
